Consider one variant from article PMC11032447 (2024).

B1: mouse secretagogin [mouse] / helix-b of the Habc domain of mouse syntaxin-4 [mouse] (parent complex)
chain 1: MDNARRKTPARLDAACFWQIWQRFDKEEKGYIRETELDAFFDHLLAKSGTEDTLMEENVQKVKEQLMTSHNVSKEGRILMKELASMFLSEDENFLLFFRLETPLDNSVEFMQIWRKYDADSSGFISAAELCNFLRDLFLHHKKNISEAELEEYTSTMMKIFDKNKDGRLDLNDLARILALQENFLLQFKMDASSTEERKRDFEKIFAHYDVSKTGALEGPEVDGFVKDMMELVQPSISGVDLDKFREILLRHCDVNKDGKIQKSELALCLGLKINP
chain 2: TPLPEESMKQGLQNLREEIKQLGREVRAQLKAIEPQKE

Variants of B1 are the subject of this experiment. Briefly: ITC. In general terms: Isothermal titration calorimetry measures the heat released or taken up as one component is titrated into another.
With chain 1 MDNARRKTPARLDAACFWQIWQRFDKEEKGYIRETELDAFFDHLLAKSGTEDTLMEENVQKVKEQLMTSHNVSKEGRILMKELASMFLSEDENFLLFFRLETPLDNSVEFMQIWRKYDADSSGFISAAELCNFLRDLFLHHKKNISEAELEEYTSTMMKIFDKNKDGRLDLNDLARILALQENFLLQFKMDASSTEERKRDFEKIFAHYDVSKTGALEGPEVDGFVKDMMELVQPSISGVDLDKFREILLRHCDVNKDGKIQKSELALCAGLKINP [chain 1 L270A], the Kd (in general, the concentration at which binding is half-saturated) is 16.2 µM.
